Assay results from PMC11044049 (The Journal of Biological Chemistry, 2024).

How the values were obtained:
[1] = target: the molecule itself; test: cryo-EM structure; 2.5 μM clamp loader and 2.2 μM sliding clamp, 1 mM ADP·BeFx, cross-linked with 1 mM BS3; 25 mM HEPES-NaOH pH 8.0, 200 mM NaCl, 4 mM MgCl2, 1 mM TCEP; Semi-Open and Fully-Open states
[2] = target: the molecule itself; test: reconstitution and co-elution on anion exchange (HiTrap Q); purified γ (WT or K141A), δ and δ′ (WT or K130A) combined 2.5:1:1, dialysed into Buffer Q-A (50 mM Tris pH 7.5, 50 mM NaCl, 10% glycerol, 2 mM DTT) overnight at 4 °C, eluted from a HiTrap Q column with a NaCl gradient; fractions with the intact complex pooled

B1: γ subunit of the E. coli clamp loader (residues 1-373) (domain or fragment, UniProt P06710 1-373, looked up)
chain: MSYQVLARKWRPQTFADVVGQEHVLTALANGLSLGRIHHAYLFSGTRGVGKTSIARLLAKGLNCETGITATPCGVCDNCREIEQGRFVDLIEIDAASRTKVEDTRDLLDNVQYAPARGRFKVYLIDEVHMLSRHSFNALLKTLEEPPEHVKFLLATTDPQKLPVTILSRCLQFHLKALDVEQIRHQLEHILNEEHIAHEPRALQLLARAAEGSLRDALSLTDQAIASGDGQVSTQAVSAMLGTLDDDQALSLVEAMVEANGERVMALINEAAARGIEWEALLVEMLGLLHRIAMVQLSPAALGNDMAAIELRMRELARTIPPTDIQLYYQTLLIGRKELPYAPDRRMGVEMTLLRALAFHPRMPLPEPEVPRQ
notes: γ subunit of the E. coli clamp loader, truncated form, residues 1-373; Stands for the single γ subunits within the γ-complex; also called γ protein; B, C and D subunits; source: E. coli BLR21(DE3), purified (HisTrap, Prescission Protease, HisTrap flowthrough); not shown: His6, N-terminal, cleaved
binding result [1]: binds

B2: γ-K141A (domain or fragment, E. coli, UniProt P06710 1-373, looked up)
chain: MSYQVLARKWRPQTFADVVGQEHVLTALANGLSLGRIHHAYLFSGTRGVGKTSIARLLAKGLNCETGITATPCGVCDNCREIEQGRFVDLIEIDAASRTKVEDTRDLLDNVQYAPARGRFKVYLIDEVHMLSRHSFNALLATLEEPPEHVKFLLATTDPQKLPVTILSRCLQFHLKALDVEQIRHQLEHILNEEHIAHEPRALQLLARAAEGSLRDALSLTDQAIASGDGQVSTQAVSAMLGTLDDDQALSLVEAMVEANGERVMALINEAAARGIEWEALLVEMLGLLHRIAMVQLSPAALGNDMAAIELRMRELARTIPPTDIQLYYQTLLIGRKELPYAPDRRMGVEMTLLRALAFHPRMPLPEPEVPRQ
notes: γ subunit of the E. coli clamp loader with K141A; insert bought from Twist Bioscience; the range 1-373 is stated for the γ subunit in general; The limits 1-373 are not repeated for the mutant itself; source: E. coli BLR21(DE3), purified (Nickel NTA agarose, Prescission Protease, HisTrap); not shown: His6, N-terminal, cleaved
binding result [2]: binds
